The text below walks through data of PMC9181621.

The target in the test is human α2-macroglobulin tetramer, (hα2M)4 (human) (UniProt P01023). As to the kind of experiment: cryo-EM structure. The settings on record: scale: trypsin molecule per disulfide-linked hα2M dimer.
UniProt P01023, sequence (P01023 24-1474): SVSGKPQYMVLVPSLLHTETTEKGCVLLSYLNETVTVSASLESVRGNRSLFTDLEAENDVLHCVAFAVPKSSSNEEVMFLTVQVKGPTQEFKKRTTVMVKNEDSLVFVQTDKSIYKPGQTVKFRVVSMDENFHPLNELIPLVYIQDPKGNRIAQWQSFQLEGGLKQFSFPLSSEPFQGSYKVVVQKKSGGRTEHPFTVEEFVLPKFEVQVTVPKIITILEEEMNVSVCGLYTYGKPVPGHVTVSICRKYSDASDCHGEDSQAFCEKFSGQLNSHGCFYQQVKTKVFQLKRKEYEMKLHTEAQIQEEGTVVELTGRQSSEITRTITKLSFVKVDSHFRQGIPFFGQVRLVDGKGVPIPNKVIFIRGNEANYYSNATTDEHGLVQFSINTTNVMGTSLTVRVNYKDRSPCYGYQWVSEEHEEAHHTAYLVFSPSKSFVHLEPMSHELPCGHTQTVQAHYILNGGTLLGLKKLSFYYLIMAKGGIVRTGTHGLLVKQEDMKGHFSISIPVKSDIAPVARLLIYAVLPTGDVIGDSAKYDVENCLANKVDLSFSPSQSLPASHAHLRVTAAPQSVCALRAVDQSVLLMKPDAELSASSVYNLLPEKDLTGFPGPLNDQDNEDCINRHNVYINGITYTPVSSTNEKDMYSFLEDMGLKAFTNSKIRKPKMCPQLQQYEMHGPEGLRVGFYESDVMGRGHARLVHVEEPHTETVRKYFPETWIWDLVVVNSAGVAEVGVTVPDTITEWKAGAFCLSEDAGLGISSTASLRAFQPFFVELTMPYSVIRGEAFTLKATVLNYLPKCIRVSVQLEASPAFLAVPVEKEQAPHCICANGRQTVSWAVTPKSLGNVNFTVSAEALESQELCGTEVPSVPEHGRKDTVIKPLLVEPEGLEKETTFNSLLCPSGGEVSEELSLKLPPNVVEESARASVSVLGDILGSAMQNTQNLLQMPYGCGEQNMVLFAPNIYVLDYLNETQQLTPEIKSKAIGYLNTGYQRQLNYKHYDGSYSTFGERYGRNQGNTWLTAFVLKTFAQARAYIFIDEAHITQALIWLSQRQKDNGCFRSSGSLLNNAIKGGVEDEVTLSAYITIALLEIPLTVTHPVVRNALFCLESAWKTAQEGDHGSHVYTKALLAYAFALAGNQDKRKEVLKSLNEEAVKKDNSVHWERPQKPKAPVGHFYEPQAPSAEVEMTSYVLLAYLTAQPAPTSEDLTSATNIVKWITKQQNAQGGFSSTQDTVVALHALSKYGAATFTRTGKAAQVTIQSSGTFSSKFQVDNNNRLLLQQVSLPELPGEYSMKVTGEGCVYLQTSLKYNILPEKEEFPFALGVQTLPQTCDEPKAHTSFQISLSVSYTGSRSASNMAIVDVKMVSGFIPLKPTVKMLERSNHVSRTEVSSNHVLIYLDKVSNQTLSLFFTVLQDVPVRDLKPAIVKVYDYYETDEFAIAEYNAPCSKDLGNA

A word on the stoichiometry N: it is a count of units in the complex or per binding partner. With bovine trypsin (enzyme), the stoichiometry N is 1.
